The record followed here is IntAct's records for PubMed 22575959.

In this assay the target is rspo1_human RSPO1 (UniProt Q2MKA7).
Chain of rspo1_human RSPO1 (Q2MKA7 whole entry): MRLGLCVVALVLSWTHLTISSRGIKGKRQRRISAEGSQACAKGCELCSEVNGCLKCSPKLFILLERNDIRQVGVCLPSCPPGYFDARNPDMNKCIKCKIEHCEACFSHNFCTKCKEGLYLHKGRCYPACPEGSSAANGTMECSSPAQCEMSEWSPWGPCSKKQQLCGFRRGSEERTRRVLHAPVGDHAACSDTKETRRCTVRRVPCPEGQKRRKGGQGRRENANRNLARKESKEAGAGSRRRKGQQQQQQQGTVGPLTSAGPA

With “E3 ubiquitin-protein ligase ZNRF3 (Homo sapiens), Q9ULT6 P103A”, the “effect of a mutation on the interaction” value is listed as “disrupting interaction strength”.
